Data set [1] addresses T1, LaR2C peptide (24-mer, La 174-197) (Homo sapiens) (UniProt P05455).
T1 sequence: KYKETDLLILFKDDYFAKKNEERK
The data set can be described thus: inhibition. To be noted: inhibition of HCV IRES translation in rabbit reticulocyte lysate.

Data set [2] deals with T2, LaR2C-N7 (La 174-180) (Homo sapiens).
T2 sequence: KYKETDL
The data set can be described thus: inhibition. To be noted: inhibition of HCV IRES translation in rabbit reticulocyte lysate; rescued by La.

Our source for the IC50 values is patent US20090233868.

As usually defined, the IC50 is the concentration that gives 50% inhibition. Turning to “HCV IRES-luciferase monocistronic RNA (uncapped)”, the IC50 in data set [1] came out at 30 µM; in data set [2], 40 µM.
